Assay results taken from patent US20050158302.

Target: GST-NFκBp65 C418 (GST-trans-activation domain only of NFκBp65) [GST: P08515]
Sequence (P08515 whole entry, looked up, the tested form may be a part): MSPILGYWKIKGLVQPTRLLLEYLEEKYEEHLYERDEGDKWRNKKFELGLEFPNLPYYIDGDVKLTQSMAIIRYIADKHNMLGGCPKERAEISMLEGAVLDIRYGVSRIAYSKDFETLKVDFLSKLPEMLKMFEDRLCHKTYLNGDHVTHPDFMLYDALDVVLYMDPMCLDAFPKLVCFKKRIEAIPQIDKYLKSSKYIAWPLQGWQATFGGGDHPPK

B1: Cdk8 (53 kD cytosolic protein kinase of Molt-4 extracts) (protein)
chain: MDYDFKVKLSSERERVEDLFEYEGCKVGRGTYGHVYKAKRKDGKDDKDYALKQIEGTGISMSACREIALLRELKHPNVISLQKVFLSHADRKVWLLFDYAEHDLWHIIKFHRASKANKKPVQLPRGMVKSLLYQILDGIHYLHANWVLHRDLKPANILVMGEGPERGRVKIADMGFARLFNSPLKPLADLDPVVVTFWYRAPELLLGARHYTKAIDIWAIGCIFAELLTSEPIFHCRQEDIKTSNPYHHDQLDRIFNVMGFPADKDWEDIKKMPEHSTLMKDFRRNTYTNCSLIKYMEKHKVKPDSKAFHLLQKLLTMDPIKRITSEQAMQDPYFLEDPLPTSDVFAGCQIPYPKREFLTEEEPDDKGDKKNQQQQQGNNHTNGTGHPGNQDSSHTQGPPLKKVRVVPPTTTSGGLIMTSDYQRSNPHAAYPNPGPSTSQPQSSMGYSATSQQPPQYSHQTHRY
- CTD phosphorylation in in vitro kinase reaction (GST-CTD substrate): kinase activity was only mildly detected in GST-NFκBp65 C418/cytosolic protein complexes
